B1: Phage-1529 (Peptide-92 library sequence, SEQ ID NO: 1825) (peptide)
peptide: TCAAGATYPWPECM
B2: Phage-1495 (Peptide-92 library clone, SEQ ID NO: 1791) (peptide)
peptide: TCSAGASYPWPVCL
notes: Tested as clonal phage supernatant; not shown: fused to pIII of the bacteriophage
B3: Phage-1522 (Peptide-92 library sequence, SEQ ID NO: 1818) (peptide)
peptide: SCAAGAMWPWPVCV
B4: Phage-1501 (Peptide-92 library clone, SEQ ID NO: 1797) (peptide)
peptide: SCAAGATYTWPMCI
notes: as for B2
B5: Phage-1527 (Peptide-92 library sequence, SEQ ID NO: 1823) (peptide)
peptide: TCSAGFSYKWPWCL
B6: Phage-1511 (peptide, not shown: large carriers)
peptide: SCSAVFSYAWPTCL
B7: Phage-1510 (peptide, not shown: large carriers)
peptide: TCAAGAHYEWPMCY
B8: Phage-1507 (peptide, not shown: large carriers)
peptide: WCTAGFSYKLSICL
B9: Phage-1502 (Peptide-92 library clone, SEQ ID NO: 1798) (peptide)
peptide: SCAAGLSYPWPDCL
notes: as for B2
B10: Phage-1490 (Peptide-92 library clone, SEQ ID NO: 1786) (peptide)
peptide: RCAAGVMYDWPVCL
notes: as for B2
B11: Phage-1515 (peptide, not shown: large carriers)
peptide: SCAAGATYEWPRCL
B12: Phage-1496 (Peptide-92 library clone, SEQ ID NO: 1792) (peptide)
peptide: WCAAGAMYPWPLCL
notes: as for B2
B13: Phage-1492 (Peptide-92 library clone, SEQ ID NO: 1788) (peptide)
peptide: TCSAGAHFAWPMCF
notes: as for B2
B14: Phage-1519 (Peptide-92 library sequence, SEQ ID NO: 1815) (peptide)
peptide: TCSAGAAYAWPYCL
B15: Phage-1493 (Peptide-92 library clone, SEQ ID NO: 1789) (peptide)
peptide: SCAAGAHYVWPFCF
notes: as for B2
B16: Phage-1516 (peptide, not shown: large carriers)
peptide: GCAAGANYPWPLCL
B17: Phage-1530 (Peptide-92 library sequence, SEQ ID NO: 1826) (peptide)
peptide: LCAAGFNYPWPLCL
B18: Phage-1499 (Peptide-92 library clone, SEQ ID NO: 1795) (peptide)
peptide: TCAAGAMWVWPTCL
notes: as for B2
B19: Phage-1508 (peptide, not shown: large carriers)
peptide: LCSAGAMYQWPTCL
B20: Phage-1473 peptide (Peptide-92 library, SEQ ID NO: 1769) (peptide)
peptide: TCAAGAVWEWPMCF
B21: Phage-1491 (Peptide-92 library clone, SEQ ID NO: 1787) (peptide)
peptide: TCSAGAHWTWPLCF
notes: as for B2
B22: Phage-1513 (peptide, not shown: large carriers)
peptide: TCAAGAHWIWPWCE
B23: Phage-1505 (peptide, not shown: large carriers)
peptide: LCSAGATYPWPWCM
B24: Phage-1506 (peptide, not shown: large carriers)
peptide: DCWGDAPYPWRVCL
B25: Phage-1526 (Peptide-92 library sequence, SEQ ID NO: 1822) (peptide)
peptide: SCAAGATFHWPMCF
B26: Phage-1524 (Peptide-92 library sequence, SEQ ID NO: 1820) (peptide)
peptide: WCAAGASYPWPWCL
B27: Phage-1520 (Peptide-92 library sequence, SEQ ID NO: 1816) (peptide)
peptide: LCAAGAAYPWPMCL
B28: Phage-1497 (Peptide-92 library clone, SEQ ID NO: 1793) (peptide)
peptide: LCNAGAPYKWPTCL
notes: as for B2
B29: Phage-1518 (Peptide-92 library sequence, SEQ ID NO: 1814) (peptide)
peptide: SCAAGAPYPWPECL
B30: Phage-1509 (peptide, not shown: large carriers)
peptide: TCSAGANYEWPWCF
B31: Phage-1517 (peptide, not shown: large carriers)
peptide: TCAAGAYYAWPMCL
B32: Phage-1474 peptide (Peptide-92 library, SEQ ID NO: 1770) (peptide)
peptide: TCAAGANYPWPLCL
B33: Phage-1503 (Peptide-92 library clone, SEQ ID NO: 1799) (peptide)
peptide: TCAAGAGWAWPFCF
notes: as for B2
B34: Phage-1512 (peptide, not shown: large carriers)
peptide: TCAAGATWPWPSCL
B35: Phage-1504 (peptide, not shown: large carriers)
peptide: MCSAGATYPWPYCL
B36: Phage-1528 (Peptide-92 library sequence, SEQ ID NO: 1824) (peptide)
peptide: TCAAGAMWTWPECL
B37: Phage-1494 (Peptide-92 library clone, SEQ ID NO: 1790) (peptide)
peptide: TCSAGATYNWPWCF
notes: as for B2
B38: Phage-1500 (Peptide-92 library clone, SEQ ID NO: 1796) (peptide)
peptide: LCAAGANYPWPACL
notes: as for B2
B39: Phage-1521 (Peptide-92 library sequence, SEQ ID NO: 1817) (peptide)
peptide: SCAAGATYEWPICL
B40: Phage-1523 (Peptide-92 library sequence, SEQ ID NO: 1819) (peptide)
peptide: SCAAGAQYGWPMCL
B41: Phage-1514 (peptide, not shown: large carriers)
peptide: TCAAGAGWQWPMCF
B42: Phage-1525 (Peptide-92 library sequence, SEQ ID NO: 1821) (peptide)
peptide: TCTAVFPYEWPRCL
B43: Phage-1531 (Peptide-92 library sequence, SEQ ID NO: 1827) (peptide)
peptide: MCTAGATYPWPACL
B44: Phage-1498 (Peptide-92 library clone, SEQ ID NO: 1794) (peptide)
peptide: LCSAGAMYPWPLCY
notes: as for B2

Assays:
[1] = molecular target: T1, Anti-CD28 Fab (SEQ ID NOs: 696, 697); assay: phage binding ELISA on plate-captured anti-CD28 Fab pre-incubated with CD28 antigen (competitor: CD28)
T1 construct: In the phage ELISA the Fab was biotinylated and captured on neutravidin coated plates
T1 sequence (VH, as listed by the source, chain 1 of 2): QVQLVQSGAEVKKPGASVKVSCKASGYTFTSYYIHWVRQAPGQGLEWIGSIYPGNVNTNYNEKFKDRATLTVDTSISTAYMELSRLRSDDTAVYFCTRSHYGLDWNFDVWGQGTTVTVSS
T1 sequence (VL, as listed by the source, chain 2 of 2): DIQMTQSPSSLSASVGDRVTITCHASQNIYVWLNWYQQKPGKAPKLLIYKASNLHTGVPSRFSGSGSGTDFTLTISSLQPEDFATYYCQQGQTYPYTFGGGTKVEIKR
Protocol: (§1) Clonal phage were harvested as crude supematants and screened via standard ELISAs. […] Prior to the addition of clonal phage, wells were incubated with blocking buffer and CD28 antigen or blocking buffer alone. Without washing or aspirating, clonal phage supematants were then added to the wells and incubated for a short time. Wells were then washed followed by detection of bound phage using a horse radish conjugated anti-M13 antibody.

[2] = molecular target: T1, Anti-CD28 Fab (SEQ ID NOs: 696, 697); assay: phage binding ELISA; clonal phage on plate-captured biotinylated anti-CD28 Fab, anti-M13 HRP detection
Protocol: as §1

[3] = molecular target: T2, Anti-CD28 Fab (SEQ ID NOs: 696, 697); assay: phage ELISA; Fab-coated wells pre-incubated with CD28 antigen as competitor, clonal phage supernatant, anti-M13 HRP detection
T2 construct: In the phage ELISA the Fab was biotinylated and captured on neutravidin coated plates
T2 sequence (VH, as listed by the source, chain 1 of 2): as the sequence (VH, as listed by the source, chain 1 of 2) above
T2 sequence (VL, as listed by the source, chain 2 of 2): as the sequence (VL, as listed by the source, chain 2 of 2) above
Protocol: as §1

[4] = molecular target: T2, Anti-CD28 Fab (SEQ ID NOs: 696, 697); assay: phage ELISA; biotinylated anti-CD28 Fab on neutravidin plate, clonal phage supernatant, anti-M13 HRP detection;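 further: before phage addition, wells were pretreated with either CD28 antigen in blocking buffer or only blocking buffer, and phage was added without an intervening wash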
Protocol: as §1

[5] = molecular target: T3, Anti-CD28 Fab (SEQ ID NOs: 696, 697); assay: phage binding ELISA; clonal phage on biotinylated anti-CD28 Fab captured on neutravidin, anti-M13-HRP detection
T3 construct: Biotinylated and captured on neutravidin coated plates in the phage ELISA
T3 sequence (VH, as listed by the source, chain 1 of 2): as the sequence (VH, as listed by the source, chain 1 of 2) above
T3 sequence (VL, as listed by the source, chain 2 of 2): as the sequence (VL, as listed by the source, chain 2 of 2) above
Protocol: as §1

[6] = molecular target: T3, Anti-CD28 Fab (SEQ ID NOs: 696, 697); assay: phage binding ELISA on captured anti-CD28 Fab; competitor CD28 antigen pre-incubated in the wells
Protocol: as §1

[7] = molecular target: Anti-CD28 Fab (SEQ ID NOs: 696, 697); assay: phage binding ELISA; biotinylated anti-CD28 Fab on neutravidin plate, clonal phage detected with anti-M13 HRP
Target sequence in this assay (VH, as listed by the source, chain 1 of 2): as the sequence (VH, as listed by the source, chain 1 of 2) above
Target sequence in this assay (VL, as listed by the source, chain 2 of 2): as the sequence (VL, as listed by the source, chain 2 of 2) above
Protocol: as §1

[8] = molecular target: Anti-CD28 Fab (SEQ ID NOs: 696, 697); assay: phage binding ELISA; anti-CD28 Fab on plate pre-incubated with CD28 antigen as competitor
Target sequence in this assay (VH, as listed by the source, chain 1 of 2): as the sequence (VH, as listed by the source, chain 1 of 2) above
Target sequence in this assay (VL, as listed by the source, chain 2 of 2): as the sequence (VL, as listed by the source, chain 2 of 2) above
Protocol: as §1

Row | Binder | Anti-CD28 Fab signal in the presence of CD28 [1] | Anti-CD28 Fab (SEQ ID NOs: 696, 697) signal [2] | Phage binding ELISA, Anti-CD28 Fab signal in the presence of CD28 [3] | Phage binding ELISA, Anti-CD28 Fab signal [4] | Anti-CD28 Fab (SEQ ID NOs: 696, 697) signal [5] | Anti-CD28 Fab signal in the presence of CD28 [6] | other results
1 | B1 | 0.06 | 1.57 |  |  |  |  | 
2 | B2 |  |  | 0.07 | 1.67 |  |  | 
3 | B3 | 0.07 | 1.59 |  |  |  |  | 
4 | B4 |  |  | 0.07 | 1.66 |  |  | 
5 | B5 | 0.06 | 1.57 |  |  |  |  | 
6 | B6 |  |  |  |  | 1.61 | 0.08 | 
7 | B7 |  |  |  |  | 1.61 | 0.12 | 
8 | B8 |  |  |  |  | 1.63 | 0.06 | 
9 | B9 |  |  | 0.07 | 1.65 |  |  | 
10 | B10 |  |  | 0.07 | 1.7 |  |  | 
11 | B11 |  |  |  |  | 1.6 | 0.07 | 
12 | B12 |  |  | 0.06 | 1.67 |  |  | 
13 | B13 |  |  | 0.07 | 1.69 |  |  | 
14 | B14 | 0.07 | 1.59 |  |  |  |  | 
15 | B15 |  |  | 0.08 | 1.68 |  |  | 
16 | B16 |  |  |  |  | 1.59 | 0.05 | 
17 | B17 | 0.05 | 1.57 |  |  |  |  | 
18 | B18 |  |  | 0.07 | 1.66 |  |  | 
19 | B19 |  |  |  |  | 1.63 | 0.06 | 
20 | B20 |  |  |  |  |  |  | Anti-CD28 Fab (SEQ ID NOs: 696, 697) signal [7]: 1.76; Anti-CD28 Fab signal in the presence of CD28 [8]: 0.07
21 | B21 |  |  | 0.06 | 1.69 |  |  | 
22 | B22 |  |  |  |  | 1.61 | 0.07 | 

Row | Binder | Anti-CD28 Fab signal in the presence of CD28 [1] | Anti-CD28 Fab (SEQ ID NOs: 696, 697) signal [2] | Phage binding ELISA, Anti-CD28 Fab signal in the presence of CD28 [3] | Phage binding ELISA, Anti-CD28 Fab signal [4] | Anti-CD28 Fab (SEQ ID NOs: 696, 697) signal [5] | Anti-CD28 Fab signal in the presence of CD28 [6] | other results
23 | B23 |  |  |  |  | 1.64 | 0.06 | 
24 | B24 |  |  |  |  | 1.64 | 0.07 | 
25 | B25 | 0.09 | 1.57 |  |  |  |  | 
26 | B26 | 0.05 | 1.58 |  |  |  |  | 
27 | B27 | 0.06 | 1.59 |  |  |  |  | 
28 | B28 |  |  | 0.07 | 1.66 |  |  | 
29 | B29 | 0.07 | 1.59 |  |  |  |  | 
30 | B30 |  |  |  |  | 1.62 | 0.06 | 
31 | B31 |  |  |  |  | 1.59 | 0.07 | 
32 | B32 |  |  |  |  |  |  | Anti-CD28 Fab (SEQ ID NOs: 696, 697) signal [7]: 1.75; Anti-CD28 Fab signal in the presence of CD28 [8]: 0.08
33 | B33 |  |  | 0.09 | 1.65 |  |  | 
34 | B34 |  |  |  |  | 1.61 | 0.08 | 
35 | B35 |  |  |  |  | 1.64 | 0.1 | 
36 | B36 | 0.07 | 1.57 |  |  |  |  | 
37 | B37 |  |  | 0.05 | 1.68 |  |  | 
38 | B38 |  |  | 0.07 | 1.66 |  |  | 
39 | B39 | 0.05 | 1.59 |  |  |  |  | 
40 | B40 | 0.05 | 1.59 |  |  |  |  | 
41 | B41 |  |  |  |  | 1.6 | 0.11 | 
42 | B42 | 0.07 | 1.57 |  |  |  |  | 
43 | B43 | 0.07 | 1.56 |  |  |  |  | 
44 | B44 |  |  | 0.08 | 1.66 |  |  | 

From patent US20260242478A1 (published 2026)
